A short description of this data set: label from the status in PepcDB records.
In the case of “MSNRIKNIHYGTQRQQLKNLTKKEYQALREMCFLAKNLYNVGTYNVRQHYFNQGEHLNYEANYHVCKENENYKLLNSNIAQQILKEVDSSFRSFFGLIKLAKEGKYDFRGIKSPKYLDKEGFFSIIIGQIRIKEDGILNVPMSPAFKKLYGKVSIKVPQNILEKKIKEIRIIPKHKARFFEIQYCYEIPKSEEVSNQKNALAIDLGLENLCTCVTNLGDSFIIDGKRLKSVNQWANKQNDKIEALKLKKNITAITRKQFKVWNKRNNQVKDYVNKTCFYIIDYCVKNNIGNLIVGYNAKLEKSDNMERKIYRNFIRIPFGEIKGKLEYLCKIKNINFIRQEESYTSKSDFFADDFLPDINVDNVKKYDFKGERITRGQYKSSVGIIINADVNASLNILKKSQVVNLSNLQNNPQILKQPQRVRIS”, the protein production result is reported as “failed”.
Take “MMRLRGIPQVFRFLLLLVLAGLAGCASKAPAPEKVAPVYQPEQSKEWERQGRQAYEAGDRKMALEAWHQAVAADPANVRVRNNLALLLKEQERFEEAAEMLEAGLKVTPKVAELHYNLAVISELYLLDLDKALEHYQHYQSLVGEEGSQVAGWIADLERRLE”: the protein production entry was “failed”.
Take “MAASSPDSYISRRPYVTMGLTVAGVLVLVVATQLVEVLFTVFAGILLAVFLAGVTQELTEDTRLPRPLAVALTLIGLGGVLVGLWALAGPDISEQASALATLLPDAAERLASRIRTTVQRYGWMQRYVDPSQLLPPVSSVLGRVTNVFRDTLNLLVNGFIILFIGIYGGAAPQSYLDGVVQLVPPSSRPRARDVLSALGRALRWWLTGRLILMLIVGVLTAVGLKVVGIPSPIALGLLAALFSFVPYLGPVLSVLPALLVASLIGPTEVLYVILVYGAVQLLESYLISPLVQQQAVHIPPATVITAQFIGGVSAGAGGVLLATPFAIVVIVLVQTLYVEDVLGDEVSLLGEH”: the protein production result is recorded as “failed”.
The value for “MSKIDWDSPEGAERYDRNCDHQFQKGHVLIEMMGIKKGDFVLDVGCGTGRQALNVAGIIGPAGKLTGIDPSSYRIELARKKFEGDSSGNVRFLVRQAENLQDIPDNSINHAYFCSSFHWVDDKKTALNEIFRVLRPGGKVGMTTLDRNSPNTMKALIDPILAKFGIERRHEWHRGMKKVTAPELHDLLSGAGFTSISIEPRAVPRKYNSPEEFLQHPEEKDSSRGILRDISNETLEKLRQEITEEFRKAQTPEDIGFGNITLFAIATKAQEGI” was “failed”; that for “MMNDRFTRIKWLVGEEKFQKISQTKVLVCGLGGVGGICVDALYRSGFKNLTLIDADKFEITNQNRQIHSENIGEEKAKVFERIYKVKGIVSKIDENFLKNFDLSEFDLIIDAIDDIPAKVALAHLIDFKKQIFISSTGGARKLDPTRIKTTSIFKTHGDALAKKFRYELRKSGFKGNFDVVFSDEEAHCKDLGSFMGVTASFGLALASLALRKVLAKKS” was “failed”; that for “MDAPTSQRYTAKARWLHWIMAALIVLAYTLILSRTQFGKGSEYRTLVVQSHFWVGIVVLVLAFFRVAERRRQRPPGITPPLEGVLRAAATLSHYALYAFLFTQPLLGLLTVMVEKGSLPIPLTDLQIPWPLPISDHTAEYFEDLHKLLGKIFYYVIGLHVVAALWHHIVRKDNTLKRML” was “failed”.
In the case of “MEKKLTVNVSDTERIASVLAGSYFMYRSLKRQPKNYAAIASAGLLLFRGVTGHCPGYSAAGKKTLPAPVHNIDIETSVIVNRPVDTVYSFWRRLENLPLFMTHLKSVKQKDHNKSDWEAYLPGGIGSIHWEAKIVKDKPGKVIAWSSLENSTIHNAGKVMFEDIGELGTVINVVISYQAPLGVAGEKVLALLTPTFEKMIRKDIVNFKQYIETGKLPTDKEYAENGKSQFE” it was “failed”; in that of “MISPDAKIKIQNFGRFLSNMVMPNIGAFIAWGFITALFIPTGWLPNETLASMVGPMITYLLPLLIGYTGGKLVGGDRGAVVGAITTMGVIVGTDIPMFMGAMMVGPMGGWAIKKFDNYIDGKVKSGFEMLVNNFSAGIIGMLCAILAFFLIGPFVKVLSGALAAGVNFLVSAHLLPLTSIFVEPAKILFLNNAINHGIFSPLGIQQASETGQSIFFLIEANPGPGLGILLAYMVFGKGTARQTAGGASIIHFFGGIHEIYFPYILMNPRLILAAIAGGMTGVFVLTMFNAGIVSPASPGSIFAILLMTQKGSIVGVLASIAAATGVSFAVASLLMKTQTSTEEDGDEAALEKATSQMKDMKSSSKNGAVVNNESKGDVDLATVQSIIVACDAGMGSSAMGASMLRKKVQDAGLNVHVTNLAINSLPESADIVITHKDLTGRARKHAPNAHHISLTNFLDSEMYNQLVTKLLAAQKQSAANDDQMVKVSVLAANDDSFEPQQPSVFQIQRENIHLGLKAANKEEAIRFAGNKLVELGYAEPEYVDAMFEREALVPTYLGESIAVPHGTVEAKDRVKKTGIVICQYPSGIQFTEDDDDVAKLVIGIAAKNDEHIQVITTITNALDEPEAIEKLTSTNDVEEILNILGGQQAA”, “failed”.
Take “MDHSLNSLNNFDFLARSFARMHAEGRPVDILAVTGNMDEEHRTWFCARYAWYCQQMMQARELELEH”: the protein production result is “not failed”.
In the case of “MRRICKVLMVIISIILGSGAPLNMAIPPLLALAAPDTSSSSTMSSSAISKVTDTNVMAVSADVTSTTDTSDTSSSDSTSATSTTTGNDTTETADTAVESGTVGTVAWTIDDAGVLTLSGGSFADLTGKRSPWYDYASSITNIKITDEITVTTASNYGYLFASLANVATVTGLNKLSMSGVTSTQSIFYRDSKLTSVDFGQTDFSTVTTMESMFEGCSVLTKVNTTNWNVSHVKSFKRTFYMCGKLTMLDVSNWDVTQVTNLDSTFSGCSSLPELDVSRWNTANVTTLASTFYSCSSVKIINASGWDTARVTDMTATFMNCTLATELNVSGWDTAKVTSMSRMFFYCENVIQLDVSGWITSQVTSLGSMFQNCSKVVTLDVGTWDTSKVTDMSFLFGGCSSLTTLNLEKWDTGSVTTLYSTFYNCSGLTSLLVDTWDTSKVTNCFWTFGGCSSLTTLNLRSWDLQSATASYGNFFNGSKKLQHLTLGPNFTFHNDKTMYLPEPSKQLPYNGTWQRNNDDPTYTSAELMTNYDGATMAGTYNWVKTSGTVLVKYVDGDGVEIADEETSSGTSGDAYQTTAKTIDGYTLHATPTNATGTYDASTITVTYVYDGNLFFNSSPTMLDFGSHTISGTTETYAPTLDKTLAVQNNGQISSTWNLTAELDSSGFVGADTGKMLLATLYYQTDDGKMTLSPGVAVQVYSQTTTDHKSVDISEHWSSNLGLLLEVPNGAAMADTYQGTISWRLNNTVANN” it was “failed”; in that of “NSFDSSNYFYGGNNICIINTKWGKHSGIGGYAEIIDTLVGNFTNISSWAKIGIRDHIHTNFLICDFVYKDNDHIMPPGISSFEDYWVKIGNDVWVGTNVTILRGVEVGDGAVIAAGSVVTKSIPPYAIVGGNPAKFIKWRFPFEVREKLLEIKWWDWDDDLIKEKKDYLQNLVGFDMDKYKIEYRKRKED”, “failed”; in that of “MTVELLNEPLSRYPAFDTADPEELRQALSSVYGAKLVEGPIAADFHARSNFVQLDDIALAFGVGTGSIAVEFPEGECARLQIALSGQFTTRSGGTSTAINARQAGIISPGRNARTEYGQNYSFTLLRVSTSALERKLTTLLGCKPKASLEFEPAANNEAPQVVNLRRMLCFLANQLNCSPLPPVVLAELQEAITLLFLSAFRHNYSRQLERESHGIAPKHVRQVEEYIEANWMRPITIEKLTALTGISSRGIFKAFQRSRGYSPMAFAKRVRLQHAHNLLSDGATPTTVTAAALSCGFSNLGHFARDYRDMFGEKPSETLQRARP”, “failed”.
As to “MKSIVIYESVHHGNTEKVAKAMVEELNAECIRAQDLNLEKLKDYDLIGFGSGIFYNKFHKNILKLVGNIGKVNGKKAVVFSTSGQGRESSNKSLRKQLEEKGFKVIGSFACKGFDTFGPLKLLGGIGKGRPDQKDIEEAKKFVLGLEKNLLEHHHHHH”, the protein production entry is listed as “failed”.
For “MAKAVASQEVANMLNDWYILMKKRDISGSIEMKDDIDKAIEKMEEDHDVLLYYQMLDFRLRLLLEDISQSSTEKLEAISFKDKDPKSTDDKLNYYFYLFKGIYEDYKQNHTEALNFFRIAEKRLSVIQNEIEKAEFHYKIGVLYYNLKATWLSIHHINIASGIFQGYDGYAKRVINCKMLIGLNYIDQFKFAESEVLLKEAIEKTEKIGDQYLLPYTYYNMGFLKSKEDKHEEALKYYNKAFAIKDFETKAKYAYLLCVYENTRSLFKTNDPDQAFKWIDTGFKKAQEVNSEIFELKFKTLYTLHSDCQNKLEVIKDFIHQLEDKKAWVDLEELLMDVANYYRENKLYEEAIYFYIKTDKASKLAGRGGE”, the protein production result is recorded as “failed”.
On to “MAVISPATRFAPPLNRPFHRRSILASFHSSSRNFLFLGKPTPSSTIVSVRCQKPVSDGVSSMESMNHVASSVSSSIDFLTLCHRLKGINGPESIADHMYRMALMALIAGDLTGVDRERCIKMAIVHDIAEAIVGDITPSDGVPKEEKSRRETAALKEMCEVLGGGLRAEEITELWLEYENNASLEANIVKDFDKVEMILQALEYEAEHGKVLDEFFISTAGKFQTEIGKSWAAEINARRKSQLTNRQR”, for which the protein production entry is “failed”.
The value for “MHSAALLQKVDELPRLPKAIAELLDVVNNEDSTVKAVSEKLSHDPVLSARVLRLANSARFGCSREVGTIDDAVVRLGMQTLRTLVIASAVVGAVPKVEGFDLADFWGNTFEVAIICQELAKRLGTLPEEAFTCGILHSIGELLIVNGDPAVAATISAAVADGADRNLMEKELLGYDNAEIGALLAQSWKFTPHLVKGIQFQNHPKSAEPYSKLAGMLAMAKQIAADWDKIPDDERTSWLAQINILAGIKVDLGGLAEKLAKMHGQGMEMGKQLA” was “not failed”; that for “MANKVEHRLSEQQMKALTDLPLVFLITHDQSKSWPITHAISWVYAKDETTIRFAIEADSLLVKTLADHPVFTLIFFADQSTYSLTCTDVAAWETTARLPLKVALYEGQIKEVRDILFYGAAVSDRPRVYKTYDEAAAMQLDQQIQDILKG” was “not failed”.
With “MNTPHGPLEYSLNSPFKAKGRFGRLSFAAWSFVSTLAIIGMLLVISVVFGALASDSNAIQIFGSLLLIAIYVTFLVFSVIFIIRRLHDRNHNGWFAILFFIPIINLIFIIYLLCAKGDIETNRFGAPRATPSWERVMGWIYIVLMPIVVILGVSSDAMMAYQRYTLHSKQVSDVSQMIQPVSTHNNRLS”, the protein production result is listed as “failed”.
In the case of “MIVIYFFSTKSQQFFAYVWAIFPVIAFFLVSFYTLDFLFSPSYLIMVPVFTIMFKINYKKDYSFVALLKMSIRQFVISFLAFIASSSFSWSIILNSSVTFLIVYLFYSSATPMRYHSYLMMFTFCQLIQVKGNTFLMQSQVVAFLIGLFLLALTLNAWWQTGLRQLTSLKSRGHVRFFKSIQLNMKQQKLAVINFWHDLQQIFFGITSFKQFLESPDERVQRFRLAIRMSFTITLSFILMWSVGGIKIIWIPMNVFLLLHPVKAEMNTRIKTRFWGTLLGCFLSLFVVNWLQLPLTHLIVSSLIGIFVYALKPGTVLQVTMATIFGLCLATISLRGMYAAELRVSFVLLAIFVVCLIDLGLFVYQRILRF” it was “failed”; in that of “MQNYGRLFELVPGKLELFKKLQLLTEQFKNYCLLSRNFEAANTVFGQIEEIYSGILKKEPGHILVSAHLLFLYETSADLYTKLGKIEKAEESYLQALDFLSKKQRASPGNTTYVRQQGKVYRMLGRAFYEAGDSGKAAQYAGKALEILRELAGKNPEDLHYQYEISDDFTGLGKLFEDIGDIERAKECHMQEINIYRNIHERDPEDEVSEANIAATLDRIGHLYAGKGETETAKQYYEQGLEAYEKLSESYPEDIDHEVGIANTLGYIGKQYSDPEPETALKYYKKALGILEDVVQTFPDVPVYKEDLIQTLGYLESLASGQKQYENAILYRERITELSRQLASENPENFDYKKELAISFKHMGLLYEKAEKHELAKQQYSKSADVFRQVLQDENEKDLMKGLLALDLQKQATILIHEKNYGLAKEYLALLRDYYEALYEKDPEKPENWKAVCEIRTLCGILHKSMGNYDAAIQIYKSVFSILHKHPVSDPDNPDYQSIIGVLYTQLGIAYHLADEYDKSKEAFEKSIPINTRLLDEETENFLHMGDMAVALAEYSKLLTSMGMKKEAEEYAAKADEIKEKIMKKFRFDEYTVEDGDKKAL”, “failed”.

Source of the values: a protein production outcome set (Wang et al. 2014).
